From doi:10.1101/2021.09.24.461759

Molecular target: pre-fusion, protease-resistant, trimeric transmembrane (TM)-deleted spike (S) glycoprotein from SARS-CoV-2 (SARS-CoV-2 (Wuhan-Hu-1) | not stated)
Assay: SEC + other: SDS-PAGE

pre-fusion, protease-resistant, trimeric transmembrane (TM)-deleted spike (S) glycoprotein from SARS-CoV-2
stoichiometry N: 3
